Earlier results in publication PMC3776556, “Crystal structures of the CPAP/STIL complex reveal its role in centriole assembly and human microcephaly” (eLife, 2013).

Columns and labels:
human STIL = conditions: ref Tang et al., 2011; cited from earlier work
Source text: Of particular interest in this regard is the putative centriolar CPAP–STIL complex, as mutations in both components result in MCPH ([Leal et al., 2003]; [Bond et al., 2005]; [Gul et al., 2006]; [Darvish et al., 2010]). CPAP and STIL are strictly required for centriole assembly: STIL at a very early stage ([Stevens et al., 2010b]; [Tang et al., 2011]; [Kitagawa et al., 2011a]; [Arquint et al., 2012]; [Vulprecht et al., 2012]) and CPAP slightly later ([Kirkham et al., 2003]; [Leidel and Gonczy, 2003]; [Basto et al., 2006]; [Kleylein-Sohn et al., 2007]; [Dobbelaere et al., 2008]; [Vulprecht et al ...

[1] = test system: centrioles in human cells; conditions: ref Kitagawa et al., 2011a; cited from earlier work
Source text: The structures we report here rev ...

B1: E1235V: human CPAP with MCPH mutation E1235V (cited studies) (protein, UniProt Q9HC77 1-1338, looked up, variant E1235V)
Centrosomal P4.1-associated …: MFLMPTSSELNSGQNFLTQWMTNPSRAGVILNRGFPILEADKEKRAAVDISTSFPIKGTHFSDSFSFINEEDSLLEEQKLESNNPYKPQSDKSETHTAFPCIKKGPQVAACHSAPGHQEENKNDFIPDLASEFKEGAYKDPLFKKLEQLKEVQQKKQEQLKRQQLEQLQRLMEEQEKLLTMVSGQCTLPGLSLLPDDQSQKHRSPGNTTTGERATCCFPSYVYPDPTQEETYPSNILSHEQSNFCRTAHGDFVLTSKRASPNLFSEAQYQEAPVEKNNLKEENRNHPTGESILCWEKVTEQIQEANDKNLQKHDDSSEVANIEERPIKAAIGERKQTFEDYLEEQIQLEEQELKQKQLKEAEGPLPIKAKPKQPFLKRGEGLARFTNAKSKFQKGKESKLVTNQSTSEDQPLFKMDRQQLQRKTALKNKELCADNPILKKDSKARTKSGSVTLSQKPKMLKCSNRKSLSPSGLKIQTGKKCDGQFRDQIKFENKVTSNNKENVTECPKPCDTGCTGWNKTQGKDRLPLSTGPASRLAAKSPIRETMKESESSLDVSLQKKLETWEREKEKENLELDEFLFLEQAADEISFSSNSSFVLKILERDQQICKGHRMSSTPVKAVPQKTNPADPISHCNRSEDLDHTAREKESECEVAPKQLHSLSSADELREQPCKIRKAVQKSTSENQTEWNARDDEGVPNSDSSTDSEEQLDVTIKPSTEDRERGISSREDSPQVCDDKGPFKDTRTQEDKRRDVDLDLSDKDYSSDESIMESIKHKVSEPSRSSSLSLSKMDFDDERTWTDLEENLCNHDVVLGNESTYGTPQTCYPNNEIGILDKTIKRKIAPVKRGEDLSKSRRSRSPPTSELMMKFFPSLKPKPKSDSHLGNELKLNISQDQPPGDNARSQVLREKIIELETEIEKFKAENASLAKLRIERESALEKLRKEIADFEQQKAKELARIEEFKKEEMRKLQKERKVFEKYTTAARTFPDKKEREEIQTLKQQIADLREDLKRKETKWSSTHSRLRSQIQMLVRENTDLREEIKVMERFRLDAWKRAEAIESSLEVEKKDKLANTSVRFQNSQISSGTQVEKYKKNYLPMQGNPPRRSKSAPPRDLGNLDKGQAASPREPLEPLNFPDPEYKEEEEDQDIQGEISHPDGKVEKVYKNGCRVILFPNGTRKEVSADGKTITVTFFNGDVKQVMPDQRVIYYYAAAQTTHTTYPEGLEVLHFSSGQIVKHYPDGRKEITFPDQTVKNLFPDGQEESIFPDGTIVRVQRDGNKLIEFNNGQRELHTAQFKRREYPDGTVKTVYANGHQETKYRSGRIRVKDKEGNVLMDTEL
For B1, the “yeast-two-hybrid interaction with STIL” value (human STIL) is listed as “appeared to weaken this yeast-two-hybrid interaction”, the centriole duplication [1] is listed as “centriole duplication was compromised by both mutations” and the “centriole overgrowth on overexpression” value [1] is listed as “able to promote centriole overgrowth to a greater extent than the WT protein”. The “localisation of CPAP to the centriole” value [1] was “did not effect the localisation of CPAP to the centriole”.
